What was measured:
Bcl-xL = target: T1, Bcl-xL (Homo sapiens, UniProt Q07817); assay: LUMIER full-length protein interaction; format: binding; settings: LUMIER results for Bcl-xL, Z-score of the interaction relative to the Gaussian fit of the data
T1 construct: myc-Bcl-xL SPOT array & FP; made in house
Description: (§1) The LUMIER assay was carried out as previously described with the following modifications. A stable cell line expressing receptor tagged on the N-terminus with Nanoluc luciferase was created (the prey). […] Each bait construct was transfected into the receptor-luciferase cells in a 96-well format and after 48 hours the cells were lysed and transferred to 384-well plates coated with anti-FLAG. After incubation and washing, luminescence was measured to quantify how much receptor-luciferase was captured by the bait protein. Anti-Flag ELISA signal was used to exclude bait proteins that were not expressed. The experiment was carried out two times, each in duplicate.

Mcl-1 = target: T2, Mcl-1 (Homo sapiens, UniProt Q07820); assay: LUMIER full-length protein interaction; format: binding; settings: LUMIER results for Mcl-1, Z-score relative to Gaussian fit of the data
T2 construct: myc-Mcl-1 SPOT array & FP; made in house
Description: as §1

T2 sequence (Q07820 with tags, fused parts or gaps): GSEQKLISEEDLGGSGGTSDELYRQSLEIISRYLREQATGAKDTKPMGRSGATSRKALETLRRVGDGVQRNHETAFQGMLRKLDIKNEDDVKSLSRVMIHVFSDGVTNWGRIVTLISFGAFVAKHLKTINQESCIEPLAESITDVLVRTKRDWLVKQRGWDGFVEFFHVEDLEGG
T1 sequence (Q07817 with tags, fused parts or gaps): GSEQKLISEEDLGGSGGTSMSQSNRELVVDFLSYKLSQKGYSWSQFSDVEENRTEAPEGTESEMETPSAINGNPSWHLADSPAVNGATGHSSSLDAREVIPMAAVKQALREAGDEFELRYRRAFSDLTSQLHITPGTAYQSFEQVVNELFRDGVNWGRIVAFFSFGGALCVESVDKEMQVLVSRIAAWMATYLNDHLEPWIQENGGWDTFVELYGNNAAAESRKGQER

z-score 1.1 (Bcl-xL; experiment 1, duplicate 1): 11.5243
z-score 1.2 (Bcl-xL; experiment 1, duplicate 2): 0.8005
z-score 2.1 (Bcl-xL; experiment 2, duplicate 1): -0.1835
z-score 2.2 (Bcl-xL; experiment 2, duplicate 2): 0.205
z-score 1.2 (Mcl-1; experiment 1, duplicate 2): 0.31
z-score 2.1 (Mcl-1; experiment 2, duplicate 1): 0.117
z-score 2.2 (Mcl-1; experiment 2, duplicate 2): 0.04852
B1: MTA2 (protein, UniProt O94776 1-668, looked up)
Metastasis-associated protein …: MAANMYRVGDYVYFENSSSNPYLVRRIEELNKTANGNVEAKVVCLFRRRDISSSLNSLADSNAREFEEESKQPGVSEQQRHQLKHRELFLSRQFESLPATHIRGKCSVTLLNETDILSQYLEKEDCFFYSLVFDPVQKTLLADQGEIRVGCKYQAEIPDRLVEGESDNRNQQKMEMKVWDPDNPLTDRQIDQFLVVARAVGTFARALDCSSSIRQPSLHMSAAAASRDITLFHAMDTLQRNGYDLAKAMSTLVPQGGPVLCRDEMEEWSASEAMLFEEALEKYGKDFNDIRQDFLPWKSLASIVQFYYMWKTTDRYIQQKRLKAAEADSKLKQVYIPTYTKPNPNQIISVGSKPGMNGAGFQKGLTCESCHTTQSAQWYAWGPPNMQCRLCASCWIYWKKYGGLKTPTQLEGATRGTTEPHSRGHLSRPEAQSLSPYTTSANRAKLLAKNRQTFLLQTTKLTRLARRMCRDLLQPRRAARRPYAPINANAIKAECSIRLPKAAKTPLKIHPLVRLPLATIVKDLVAQAPLKPKTPRGTKTPINRNQLSQNRGLGGIMVKRAYETMAGAGVPFSANGRPLASGIRSSSQPAAKRQKLNPADAPNPVVFVATKDTRALRKALTHLEMRRAARRPNLPLKVKPTLIAVRPPVPLPAPSHPASTNEPIVLED

From article PMC4072508, “Genome-Wide Prediction and Validation of Peptides That Bind Human Prosurvival Bcl-2 Proteins” (PLoS Computational Biology, 2014)
